# Laboratory results as given in article doi:10.1101/2024.08.10.607320.
# Assays:
# [1] = target: Collagen I (triple helix of two α1 chains and one α2 chain) (UniProt P02454); test: AFM adhesion force
# [2] = target: Collagen I (triple helix of two α1 chains and one α2 chain) (UniProt P02454); test: SPR
# Sequence of Collagen I (triple helix of two α1 chains and one α2 chain) (P02454 152-1207, chain 1 of 2): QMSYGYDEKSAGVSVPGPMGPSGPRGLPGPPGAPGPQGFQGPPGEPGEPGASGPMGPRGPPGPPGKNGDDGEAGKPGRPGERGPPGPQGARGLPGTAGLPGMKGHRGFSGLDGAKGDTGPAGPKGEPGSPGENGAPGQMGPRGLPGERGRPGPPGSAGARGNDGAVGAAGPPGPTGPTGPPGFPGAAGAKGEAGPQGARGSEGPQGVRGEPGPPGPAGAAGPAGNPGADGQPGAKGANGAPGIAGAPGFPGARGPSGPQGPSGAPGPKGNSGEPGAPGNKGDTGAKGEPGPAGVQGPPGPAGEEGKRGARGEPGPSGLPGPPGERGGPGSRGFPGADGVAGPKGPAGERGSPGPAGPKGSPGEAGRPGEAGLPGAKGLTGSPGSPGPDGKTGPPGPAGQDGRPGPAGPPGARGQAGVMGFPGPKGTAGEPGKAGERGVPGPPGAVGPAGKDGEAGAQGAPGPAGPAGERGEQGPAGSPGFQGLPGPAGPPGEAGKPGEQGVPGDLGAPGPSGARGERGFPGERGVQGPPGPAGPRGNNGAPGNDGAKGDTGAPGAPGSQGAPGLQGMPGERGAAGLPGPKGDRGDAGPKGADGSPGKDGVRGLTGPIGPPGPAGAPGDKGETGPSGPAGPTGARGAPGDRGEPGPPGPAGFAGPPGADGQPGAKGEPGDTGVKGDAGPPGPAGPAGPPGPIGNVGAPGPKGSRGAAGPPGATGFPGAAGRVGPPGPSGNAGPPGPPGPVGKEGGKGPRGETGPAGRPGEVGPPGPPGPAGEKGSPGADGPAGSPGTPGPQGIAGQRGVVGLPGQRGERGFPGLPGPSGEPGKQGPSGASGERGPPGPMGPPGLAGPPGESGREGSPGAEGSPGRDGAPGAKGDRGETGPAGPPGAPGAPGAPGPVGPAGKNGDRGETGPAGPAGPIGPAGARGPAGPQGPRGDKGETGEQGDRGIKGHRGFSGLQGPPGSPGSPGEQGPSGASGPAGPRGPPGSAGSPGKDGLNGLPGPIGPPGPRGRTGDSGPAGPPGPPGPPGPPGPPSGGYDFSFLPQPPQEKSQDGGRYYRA
# Sequence of Collagen I (triple helix of two α1 chains and one α2 chain) (P02466 86-1125, chain 2 of 2, further chain): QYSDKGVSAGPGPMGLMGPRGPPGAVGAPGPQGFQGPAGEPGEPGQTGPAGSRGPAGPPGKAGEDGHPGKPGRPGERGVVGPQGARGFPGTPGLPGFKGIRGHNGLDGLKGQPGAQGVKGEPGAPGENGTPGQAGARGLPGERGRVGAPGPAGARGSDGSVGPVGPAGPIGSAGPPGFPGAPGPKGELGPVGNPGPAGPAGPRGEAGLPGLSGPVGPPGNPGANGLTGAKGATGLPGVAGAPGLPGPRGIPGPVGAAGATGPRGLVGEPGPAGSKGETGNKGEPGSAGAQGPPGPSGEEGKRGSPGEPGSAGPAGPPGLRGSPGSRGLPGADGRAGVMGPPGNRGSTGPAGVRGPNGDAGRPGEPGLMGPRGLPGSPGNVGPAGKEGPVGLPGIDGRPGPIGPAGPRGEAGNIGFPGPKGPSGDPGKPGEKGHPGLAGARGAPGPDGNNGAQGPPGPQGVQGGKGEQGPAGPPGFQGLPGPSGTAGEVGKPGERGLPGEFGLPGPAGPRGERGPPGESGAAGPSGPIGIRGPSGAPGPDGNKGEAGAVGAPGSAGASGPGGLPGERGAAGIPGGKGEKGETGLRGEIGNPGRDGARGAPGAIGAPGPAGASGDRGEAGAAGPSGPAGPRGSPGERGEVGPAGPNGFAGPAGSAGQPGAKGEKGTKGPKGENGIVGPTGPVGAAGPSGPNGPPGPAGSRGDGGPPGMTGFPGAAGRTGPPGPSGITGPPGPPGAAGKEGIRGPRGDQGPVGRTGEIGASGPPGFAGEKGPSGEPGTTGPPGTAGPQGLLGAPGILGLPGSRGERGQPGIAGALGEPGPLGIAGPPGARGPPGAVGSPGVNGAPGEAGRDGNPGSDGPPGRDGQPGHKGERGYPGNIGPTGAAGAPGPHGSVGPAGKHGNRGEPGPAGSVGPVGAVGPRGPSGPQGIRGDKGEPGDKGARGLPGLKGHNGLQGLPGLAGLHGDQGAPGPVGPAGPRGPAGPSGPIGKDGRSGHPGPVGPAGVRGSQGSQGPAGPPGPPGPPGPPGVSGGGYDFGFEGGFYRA
substance,measurement,setting,value
"Amylin1-37 (human islet amyloid polypeptide), recombinant, monomer (from UniProt P10997 34-70)",peak force (maximum unbinding force),[1],3.5 nN
same,Kd,[2],6.27 µM
